Experiment [1] addresses T1, VISTA-His ECD (Sino Biological 13482-H08H) (human, UniProt Q9H7M9 33-194).
T1 construct: Bought protein; also called VISTA-ECD; not shown: His tag
Description: BLI (Octet K2), ratio of off-rates at pH 7.4 to control Ab No. 245.1. A general note: BLI is a label-free optical method that tracks binding on a fibre tip over time.

Experiment [2] deals with T1, VISTA-His ECD (Sino Biological …). Description: BLI (Octet K2), ratio of the pH 6.0 fold change to the pH 7.4 fold change.
Experiment [3] addresses T2, rhFcRn (R&D) (human (printed as rhFcRn), UniProt P55899 24-297; P61769 21-119).
T2 construct: Bought reagent; also called neonatal Fc receptor; FcRn ligand
Description: BLI Octet K2, antibody on FAB2G sensor, rhFcRn analyte (row of 50 nM), pH 6.0, 1:1 global fit.

Experiment [4] has as its target T2, rhFcRn (R&D). Description: BLI Octet K2, antibody on FAB2G sensor, rhFcRn analyte (row of 200 nM), pH 6.0, 1:1 global fit.
Experiment [5] addresses T2, rhFcRn (R&D). Kind of experiment: BLI Octet K2, antibody on FAB2G sensor, rhFcRn analyte (row of 800 nM), pH 6.0, 1:1 global fit.
Experiment [6] addresses T3, His-tagged recombinant mouse VISTA-ECD (Met 1 to Ala 194) (mouse, UniProt Q9D659 33-194).
T3 construct: Bought (Sino Biological); not shown: His tag
T3 sequence: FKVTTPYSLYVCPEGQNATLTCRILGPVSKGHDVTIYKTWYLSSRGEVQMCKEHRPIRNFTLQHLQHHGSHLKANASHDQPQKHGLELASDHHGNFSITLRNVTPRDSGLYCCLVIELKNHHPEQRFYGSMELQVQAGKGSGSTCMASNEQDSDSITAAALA
Description: ELISA endpoint, His-VISTA on plate, mAb at 23 µg/mL.

The target of experiment [7] is T4, His-tagged recombinant cynomolgus monkey VISTA-ECD (Met 1 to Ala 194) (cynomolgus monkey, UniProt Q9H7M9 33-194 (human entry)).
T4 construct: also called cyno VISTA; Cyno VISTA
T4 chain: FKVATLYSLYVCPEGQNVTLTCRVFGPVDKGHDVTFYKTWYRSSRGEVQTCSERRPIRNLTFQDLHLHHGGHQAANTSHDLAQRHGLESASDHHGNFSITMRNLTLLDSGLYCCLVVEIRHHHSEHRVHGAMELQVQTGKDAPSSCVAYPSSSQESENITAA
Kind of experiment: BLI Octet, mAb on AHC sensor, cyno VISTA-ECD-His 300 nM.

The target in experiment [8] is T5, His-tagged recombinant human VISTA-ECD (Met 1 to Ala 194) (human, UniProt Q9H7M9 33-194).
T5 construct: also called hu.VISTA; VISTA-His; not shown: His tag
Description: ELISA, His-tagged human VISTA ECD on plate, mAb titrated. For orientation: ELISA stands for enzyme-linked immunosorbent assay.

The target of experiment [9] is T5, His-tagged recombinant human VISTA-ECD …. Kind of experiment: BLI Octet, reversed format (avidity): hu VISTA-ECD-His on HIS1K sensor, mAb 133.3 nM.
For the next experiment, the target named is T6, RFQ-VISTA-ECD-Fc (human).
T6 construct: also called hVISTA ECD-Fc R54A, F62A, Q63A; human VISTA-Fc 54A62A63A
Kind of experiment: ELISA, 10 ug/mL antibody on plate-bound mutant VISTA-Fc.

For experiment [10], the target named is T7, his-tagged human VISTA-ECD (human, UniProt Q9H7M9 33-194).
T7 construct: also called hu.VISTA; VISTA protein (Human recombinant, produced in HEK 293 cells, SinoBiologics); not shown: His tag
Kind of experiment: BLI sandwich binning; VISTA-ECD-His held by capture Ab 173.1 (competitor).

Experiment [11] has as its target T7, his-tagged human VISTA-ECD. Kind of experiment: BLI sandwich binning; VISTA-ECD-His held by capture Ab 245.1 (competitor).
Experiment [12] has as its target T7, his-tagged human VISTA-ECD. Description: BLI sandwich binning; VISTA-ECD-His held by capture Ab 269.1 (competitor).
Experiment [13] has as its target T7, his-tagged human VISTA-ECD. Kind of experiment: BLI sandwich binning; VISTA-ECD-His held by capture Ab 321.1 (competitor).
For experiment [14], the target named is T7, his-tagged human VISTA-ECD. Description: BLI sandwich binning; VISTA-ECD-His held by capture Ab 457.1 (competitor).
Experiment [15] deals with T7, his-tagged human VISTA-ECD. Description: BLI sandwich binning; VISTA-ECD-His held by capture Ab 465.1 (competitor).
Experiment [16] concerns the target T7, his-tagged human VISTA-ECD. Kind of experiment: BLI sandwich binning; VISTA-ECD-His held by capture Ab VSTB-174 (competitor).
For experiment [17], the target named is T8, hVISTA ECD-Fc R54A, F62A, Q63A (human).
T8 construct: also called human VISTA-Fc 54A62A63A; triple VISTA-Fc mutant
Description: ELISA on immobilized VISTA-Fc (5 µg/mL), antibody at 10 µg/mL.

Experiment [18] deals with T5, His-tagged recombinant human VISTA-ECD …. Kind of experiment: ELISA endpoint, His-VISTA on plate, mAb at 2 µg/mL.
The target in experiment [19] is T4, His-tagged recombinant cynomolgus …. Kind of experiment: ELISA endpoint, His-VISTA on plate, mAb at 2 µg/mL.

Where only a bound is given, the exact number is not on record here.

B1: Antibody No. 474.1 with VL Y32H, VH Y52H (antibody, V domains shown)
VH: QVQLQESGPGLVKPSETLSLTCTVSGGSISSYYWSWIRQPPGKGLEWIGYIHYSGSTNYNPSLKSRVTISVDTSKSQFSLKLSSVTAADTAVYYCARDIPAFAFDIWGQGTMVIVSS
VL: EIVLTQSPATLSLSPGERATLSCRASQSVSYHLAWYQQKPGQAPRLLIYDAFNRATGIPARFSGSGSGTDFTLTISSLEPEDFAVYYCQQRINWPLTFGGGTKVEIK
For B1, the “Kdis (pH 7.4) ÷ Kdis, Ab No. 245.1 (pH 7.4)” value in [1] turned out to be 45 s⁻¹. Also, in [2], the “ΔKdis (pH 6.0)/ΔKdis (pH 7.4)” value is 3.4.

B2: Antibody No. 150.1 (antibody, human IgG1, kappa)
heavy: QVQLQESGPGLVKPSETLSLTCTVSGGSISSYYWSWIRQPPGKGLEWIGYIYYSGSTNYNPSLKSRVTISVDTSKSQFSLKLSSVTAADTAVYYCARDIPAFAFDIWGQGTMVIVSSASTKGPSVFPLAPSSKSTSGGTAALGCLVKDYFPEPVTVSWNSGALTSGVHTFPAVLQSSGLYSLSSVVTVPSSSLGTQTYICNVNHKPSNTKVDKKVEPKSCDKTHTCPPCPAPELLGGPSVFLFPPKPKDTLYITREPEVTCVVVDVSHEDPEVKFNWYVDGVEVHNAKTKPREEQYNSTYRVVSVLTVLHQDWLNGKEYKCKVSNKALPAPIEKTISKAKGQPREPQVYTLPPSRDELTKNQVSLTCLVKGFYPSDIAVEWESNGQPENNYKTTPPVLDSDGSFFLYSKLTVDKSRWQQGNVFSCSVMHEALHNHYTQKSLSLSPGK
light: not shown
notes: Human IgG1 with the YTE mutations (M252Y, S254T, T256E, EU numbering), kappa light chain; It is left out here; copies: 2 + 2
What is called koff is the first-order rate constant of dissociation. In general, kon refers to the second-order rate constant of association. In the experiment with rhFcRn (R&D) [3], B2 registered a Kd of 84.1 nM, a koff of 0.0192 s⁻¹ and a kon of 228000 M⁻¹ s⁻¹. Further, in the experiment with rhFcRn (R&D) [4], the Kd is 84.1 nM, the koff stood at 0.0192 s⁻¹ and the on-rate constant (kon) was 228000 M⁻¹ s⁻¹. In the experiment with rhFcRn (R&D) [5], this molecule gave a Kd of 84.1 nM, a koff of 0.0192 s⁻¹ and an association rate constant (kon) of 228000 M⁻¹ s⁻¹.

B3: Antibody No. 269.1 (antibody, human IgG1, kappa)
heavy: not shown
light: EIVLTQSPDFQSVTPKEKVTITCRASQSIGSSLHWYQQKPDQSPKLLIKYASQSISGVPSRFSGSGSGTDFTLTINSLEAEDAAAYYCHQSSSLPQTFGQGTKVEIKRTVAAPSVFIFPPSDEQLKSGTASVVCLLNNFYPREAKVQWKVDNALQSGNSQESVTEQDSKDSTYSLSSTLTLSKADYEKHKVYACEVTHQGLSSPVTKSFNRGEC
notes: Human IgG1, kappa
As a reminder, the EC50 is the concentration that produces a half-maximal response. Take B3: in experiment [6], the “endpoint absorbance (450 nm)” value stood at 0.079. Further, the Response in [7] worked out at 0.434. In addition, in [8], the EC50 came to 0.475 µg/mL. For the same molecule, in experiment [9], the Kd is less than 0.001 nM.

B4: Antibody No. 269.1 (antibody, human IgG1, kappa)
heavy: not shown
light: EIVLTQSPDFQSVTPKEKVTITCRASQSIGSSLHWYQQKPDQSPKLLIKYASQSISGVPSRFSGSGSGTDFTLTINSLEAEDAAAYYCHQSSSLPQTFGQGTKVEIKRTVAAPSVFIFPPSDEQLKSGTASVVCLLNNFYPREAKVQWKVDNALQSGNSQESVTEQDSKDSTYSLSSTLTLSKADYEKHKVYACEVTHQGLSSPVTKSFNRGEC
notes: human IgG1
As for B4, in the experiment with RFQ-VISTA-ECD-Fc, the “ELISA Abs 450 nm” value came to 1.65 Abs 450 nm. The “BLI response of secondary antibody” value in experiment [10] was determined as 0.0651 nm; in experiment [11] it was 0.0319 nm; in experiment [12] it was 0.066 nm; in experiment [13], 0.0542 nm; in [14], 0.0507 nm; in experiment [15], 0.0505 nm. Further, the “BLI response of secondary antibody” value in experiment [16] stood at 0.0261 nm.

B5: Antibody No. 269.1 (antibody, human IgG1, kappa)
light: EIVLTQSPDFQSVTPKEKVTITCRASQSIGSSLHWYQQKPDQSPKLLIKYASQSISGVPSRFSGSGSGTDFTLTINSLEAEDAAAYYCHQSSSLPQTFGQGTKVEIKRTVAAPSVFIFPPSDEQLKSGTASVVCLLNNFYPREAKVQWKVDNALQSGNSQESVTEQDSKDSTYSLSSTLTLSKADYEKHKVYACEVTHQGLSSPVTKSFNRGEC
heavy: not shown
In the case of B5, the binding result in experiment [17] was “binds”.

B6: Antibody No. 833.1 (antibody, human IgG1, kappa)
heavy: not shown
light: EIVLTQSPDFQSVTPKEKVTITCRASQSIGSSLHWYQQKPDQSPKLLIKYASQSISGVPSRFSGSGSGTDFTLTINSLEAEDAAAYYCHQSSSLPQTFGQGTKVEIKRTVAAPSVFIFPPSDEQLKSGTASVVCLLNNFYPREAKVQWKVDNALQSGNSQESVTEQDSKDSTYSLSSTLTLSKADYEKHKVYACEVTHQGLSSPVTKSFNRGEC
notes: human IgG1; also called Ab No. 833.1
Consider B6, for which the “ELISA Abs 450 nm” value with RFQ-VISTA-ECD-Fc was 1.56 Abs 450 nm.

B7: Antibody No. 457.1 (antibody, human IgG1, kappa)
heavy: not shown
light: EIVLTQSPATLSLSPGERATLSCGASQSVSSNYLAWYQQKPGLAPRLLIYGASSRATGVPDRFSGSGSGTDFTLTISRLEPEDFAVYYCQQYGYSYTFGQGTKLEIKRTVAAPSVFIFPPSDEQLKSGTASVVCLLNNFYPREAKVQWKVDNALQSGNSQESVTEQDSKDSTYSLSSTLTLSKADYEKHKVYACEVTHQGLSSPVTKSFNRGEC
notes: Human IgG1, kappa
On to B7, for which the “endpoint absorbance (450 nm)” value in experiment [18] was found to be 2.04; in experiment [19], 2; in [6], 0.082. The Response in experiment [7] was 0.456. In addition, the concentration giving a half-maximal response (EC50) in [8] worked out at 0.394 µg/mL.

B8: Antibody No. 457.1 (antibody, human IgG1, kappa)
heavy: not shown
light: EIVLTQSPATLSLSPGERATLSCGASQSVSSNYLAWYQQKPGLAPRLLIYGASSRATGVPDRFSGSGSGTDFTLTISRLEPEDFAVYYCQQYGYSYTFGQGTKLEIKRTVAAPSVFIFPPSDEQLKSGTASVVCLLNNFYPREAKVQWKVDNALQSGNSQESVTEQDSKDSTYSLSSTLTLSKADYEKHKVYACEVTHQGLSSPVTKSFNRGEC
notes: human IgG1
As to B8, the “ELISA Abs 450 nm” value in the experiment with RFQ-VISTA-ECD-Fc worked out at 1.6 Abs 450 nm. Moreover, the “BLI response of secondary antibody” value was found to be 0.0675 nm in experiment [10]; 0.0427 nm in experiment [11]; 0.0173 nm in [12]; 0.0481 nm in experiment [13]; 0.0481 nm in [14]; 0.044 nm in experiment [15]. Moreover, the “BLI response of secondary antibody” value in experiment [16] was found to be 0.0285 nm.

B9: Antibody No. 457.1 (antibody, human IgG1, kappa)
light: EIVLTQSPATLSLSPGERATLSCGASQSVSSNYLAWYQQKPGLAPRLLIYGASSRATGVPDRFSGSGSGTDFTLTISRLEPEDFAVYYCQQYGYSYTFGQGTKLEIKRTVAAPSVFIFPPSDEQLKSGTASVVCLLNNFYPREAKVQWKVDNALQSGNSQESVTEQDSKDSTYSLSSTLTLSKADYEKHKVYACEVTHQGLSSPVTKSFNRGEC
heavy: not shown
As for B9, the binding result in experiment [17] is “binds”.

These data come from patent publication US20240132593A1 (KINETA, published 2024).
